According to PMC4949257, “Three CoA Transferases Involved in the Production of Short Chain Fatty Acids in Porphyromonas gingivalis” (Frontiers in Microbiology, 2016):

Legend:
[1] = substrate: CC(=O)O; assay: purified protein; conditions: co-substrate butyryl-CoA, 40 mM potassium phosphate pH 8.0, ternary-complex mechanism
[2] = substrate: CCCC(=O)SCCNC(=O)CCNC(=O)[C@H](O)C(C)(C)COP(=O)(O)OP(=O)(O)OC[C@H]1O[C@@H](n2cnc3c(N)ncnc32)[C@H](O)[C@@H]1OP(=O)(O)O; assay: acetyl-CoA formation, citrate synthase/DTNB A412, secondary plots; assay type: biochemical, Porphyromonas gingivalis; conditions: co-substrate sodium acetate, 40 mM potassium phosphate pH 8.0, ternary-complex mechanism
Source text: acetyl-CoA formation, citrate synthase/DTNB A412, secondary plots on PGN_1341

[3] = substrate: CCCC(=O)SCCNC(=O)CCNC(=O)[C@H](O)C(C)(C)COP(=O)(O)OP(=O)(O)OC[C@H]1O[C@@H](n2cnc3c(N)ncnc32)[C@H](O)[C@@H]1OP(=O)(O)O; assay: as above; assay type: biochemical, Porphyromonas gingivalis; conditions: co-substrate sodium acetate, 40 mM potassium phosphate pH 8.0, ternary-complex mechanism; remark: listed apart in the source
Source text: (§1) acetyl-CoA formation, citrate synthase/DTNB A412, secondary plots on PGN_1888

[4] = substrate: CCC(=O)SCCNC(=O)CCNC(=O)[C@H](O)C(C)(C)COP(=O)(O)OP(=O)(O)OC[C@H]1O[C@@H](n2cnc3c(N)ncnc32)[C@H](O)[C@@H]1OP(=O)(O)O; assay: as above; assay type: biochemical, Porphyromonas gingivalis; conditions: co-substrate sodium acetate, 40 mM potassium phosphate pH 8.0, ternary-complex mechanism
Source text: as §1

[5] = substrate: CCCC(=O)SCCNC(=O)CCNC(=O)[C@H](O)C(C)(C)COP(=O)(O)OP(=O)(O)OC[C@H]1O[C@@H](n2cnc3c(N)ncnc32)[C@H](O)[C@@H]1OP(=O)(O)O; assay: as above; assay type: biochemical, Porphyromonas gingivalis; conditions: co-substrate sodium acetate, 40 mM potassium phosphate pH 8.0, ternary-complex mechanism; remark: listed apart in the source
Source text: (§2) acetyl-CoA formation, citrate synthase/DTNB A412, secondary plots on PGN_0725

[6] = substrate: CCC(=O)SCCNC(=O)CCNC(=O)[C@H](O)C(C)(C)COP(=O)(O)OP(=O)(O)OC[C@H]1O[C@@H](n2cnc3c(N)ncnc32)[C@H](O)[C@@H]1OP(=O)(O)O; assay: as above; assay type: biochemical, Porphyromonas gingivalis; conditions: co-substrate sodium acetate, 40 mM potassium phosphate pH 8.0, ternary-complex mechanism; remark: listed apart in the source
Source text: as §2

B1: PGN_1341 (Porphyromonas gingivalis ATCC 33277) (protein)
chain: MALRFITAEEAAEFVHHNDNVGFSGFTPAGNPKVVPAAIAKRAIAEHEKGNPFKIGMFTGASTGARLDGVLAQADAVKFRTPYQSNKDLRNLINNGSTSYFDLHLSTLAQDLRYGFYGKVDVAIIEVADVTEDGKILPTTGVGILPTICRLADRIIVELNDKHPKEIMGMHDLCEPLDPPARRELPVYTPSDRIGKPYVQVDPAKIVGVVRTSEPNDESDFAPLDPVTQAIGDNVAAFLVSEMKAGRIPKDFLPLQSGVGNVANAVLGALGDNPDIPAFNMYTEVIQDAVIALMKKGRIKFASGCSLSVSRSVIQDIYANLDFFKDKILLRPQEYSNNPEIVRRLGVITINTALEADIFGNINSTHVSGTRMMNGIGGSGDFTRNSYVSIFTTPSVMKDGKISSFVPMVAHHDHSEHSVKVIISEWGVADLRGKNPRERAHEIIDKCVHPDYRPLLRQYLELGVKGQTPQNLDCCFAFHQELAKSGDMRNVRWEDYMK
notes: recombinant full-length, pGEX-6P-1 (GST vector) in E. coli; 498 aa
Q: How did the Km [1] turn out when B1 was run?
A: 26000 ± 2800 µM

Q: And the kcat [1]?
A: 24 ± 0.3 s⁻¹

Q: And the Km [2]?
A: 610 ± 40 µM

Q: And the kcat [2]?
A: 24 ± 0.3 s⁻¹

B2: PGN_1888 (Porphyromonas gingivalis ATCC 33277) (protein)
chain: MQWQELYRQRVCSADEAVVDSLKPGTKVVFGHAAAAPVRFSQAMYRQRERLENITVFHMLYFGDAPHLAPEMRSHVHPTLNFLEGNSRPASRDRRVDFIPCHFHEVPELFRQGFFPLDVAVVQVSTPNEEGYCSFGVSCDYTKAAAECAPVVVAEVNKQMPFIGGENLIHISNLTHIIEVDEPIAEVLPPAISDLELRIGQNCASLIKDGDTLQLGIGGIPDAVLRALEGHKDLGIHTEMFTDGVMRMIRKGIINGKKKTLHPEKVVTSLIFGSKELYDFVNNNPVIECYPVDYINNPDVIGKNDRMVSINSCLEMDLMGQAASESIGYEQFSGSGGQVDFLRGAKRSKGGISIMAFPSTAKKGTESRIVPILKEGACVTTGRNEVDYVVTEYGVARLRGATLRQRAEALTAIAHPDFRPALEEEIRRRFE
notes: recombinant full-length, pGEX-6P-1 (GST vector) in E. coli; 431 aa
Q: What does the source list for B2?
A: Km [1]: 33000 ± 5300 µM; kcat [1]: 254 ± 10 s⁻¹; Km [3]: 920 ± 70 µM; kcat [3]: 254 ± 10 s⁻¹; Km [4]: 23 ± 4.4 µM; kcat [4]: 1374 ± 477 s⁻¹

B3: PGN_0725 (Porphyromonas gingivalis ATCC 33277) (protein)
chain: MKDVLAEYASRIVSAEEAVKHIKNGERVALSHAAGVPQSCVDALVQQADLFQNVEIYHMLCLGEGKYMAPEMAPHFRHITNFVGGNSRKAVEENRADFIPVFFYEVPSMIRKDILHIDVAIVQLSMPDENGYCSFGVSCDYSKPAAESAHLVIGEINRQMPYVHGDNLIHISKLDYIVMADYPIYSLAKPKIGEVEEAIGRNCAELIEDGATLQLGIGAIPDAALLFLKDKKDLGIHTEMFSDGVVELVRSGVITGKKKTLHPGKMVATFLMGSEDVYHFIDKNPDVELYPVDYVNDPRVIAQNDNMVSINSCIEIDLMGQVVSECIGSKQFSGTGGQVDYVRGASWSKNGKSIMAIPSTAKNGTASRIVPIIAEGAAVTTLRNEVDYVVTEYGIAQLKGKSLRQRAEALIAIAHPDFREELTEHLRKRFG
notes: as for B2
Q: With B3 as the protein, how does the Km [1] read?
A: 16000 ± 1800 µM

Q: What about the kcat [1] of the same protein?
A: 560 ± 4.1 s⁻¹

Q: And the Km [5]?
A: 520 ± 10 µM

Q: And the kcat [5]?
A: 560 ± 4.1 s⁻¹

Q: And the Km [6]?
A: 108 ± 47 µM

Q: What about the kcat [6] of the same protein?
A: 533 ± 31 s⁻¹
